Patent publication US8455615B2, “Methods and compositions for prostate cancer immunotherapy” (Beth Israel Deaconess Medical Center, priority 2008, dated 2013)

What was measured:
HLA-A2.1 [1] = biological target: T1, HLA-A2.1 (Homo sapiens, UniProt P04439, D140Y/D185E/D98H/E176V/E277Q/G131W/G231S/I119V/I121R/I166T/I218V/L300P/L318F/N151K/N90K/P208A/P217A/Q86G/Q94H/R138H/R169H/T345S); assay: MHC stabilization assay on T2 cells (SIM2 peptides); assay type: cell-based; conditions: 50 μg peptide/250×10^3 cells/ml overnight at 37° C., BB7.2 mAb, flow cytometry
T1 construct: stabilize MHC class I molecules from the T2 cell line; endogenous in cells; host or cells: T2 cells
Protocol: Epitope candidates were evaluated for binding to HLA-A2.1 using an MHC stabilization assay. The assay is based on the ability of suitable peptides to stabilize MHC class I molecules from the T2 cell line. T2 cells lack a functional transporter associated with antigen presentation (TAP) and as a result accumulate empty, unstable class I molecules on the cell surface. These molecules on the cell surface dissociate rapidly unless they are stabilized by the addition of an appropriate binding peptide. In this assay, the flu M1 HLA-A*0201-binding peptide was used as a reference.
Briefly, T2 cells were cultured for 6 hours in serum-free IMDM (ATCC) prior to the addition of candidate peptides at a concentration of 50 μg/250×10^3 cells/ml and incubated overnight at 37° C. Cells were washed, and surface HLA-A2.1 molecules were stained with FITC mouse anti-human HLA-A2 mAb (clone BB7.2, Mouse IgG2b κ, BD Pharmingen) for 1 hour at 4° C. Cells were then washed three times with PBS and analyzed by flow cytometry. A negative control peptide (NEG, see FIG. 6A) and the flu matrix peptide M1 binder peptide (M1, see FIG. 6A) served as controls. The relative binding affinity of a given peptide was calculated as MFI(peptide)/MFI(negative peptide). Only relative binding affinities of 1.5 or higher were considered for further testing.

transgenic HHD mice = assay: Immunization of HHD mice with SIM2 peptides, IFN-γ ELISPOT on splenocytes; assay type: in vivo, mouse; conditions: male HHD mice, s.c. peptide in IFA with HBVcore128-140 helper epitope, 10-12 days; P<0.01 for SIM2(87), P<0.001 for other epitopes
Protocol: These nine SIM2 peptides were then tested for their capacity to elicit in vivo CTL responses in transgenic HHD mice. Ten to 12-week old male HHD mice were injected subcutaneously at the basis of the tail with […] of each candidate peptide emulsified in 50 μl of Incomplete Freund's Adjuvant (IFA) and 50 μl PBS in the presence of 150 μg of the I-A^b restricted HBVcore128-140 T helper epitope ([…]; SEQ ID NO: 88). Ten to twelve days post-immunization, spleens were harvested and splenocytes tested for peptide-induced specific release of IFN-γ by ELISPOT. To perform the ELISPOT assays, 96-well Millipore IP plates were coated with 100 μl/well mouse IFN-γ specific capture mAb (AN18, Mabtech Inc., Mariemont, Ohio) at a concentration of 10 μg/ml in PBS overnight at 4° C. Wells were washed with PBS and saturated with RPMI/10% FCS for 1 hour at 37° C. A total of 2.5×10^5 splenocytes were seeded in each well in four replicates and 5×10^4 peptide-loaded (10 μg peptide/ml, for 2 hours at 37° C.) splenocytes pretreated with 50 μg/ml Mitomycin C for 1 hour were added to each well. Plates were incubated for 1-2 days at 37° C. in 5% CO2, washed 5 times with PBS, and then incubated with 1 μg/ml of biotinylated rat anti-mouse IFN-γ mAb (R4-6A2, Mabtech Inc.) for 24 hours at 4° C. or at room temperature for 2 hours. The wells were washed, and incubated with 100 μl of diluted alkaline phosphatase-conjugated streptavidin for 1 hour at room temperature. Spots were developed by adding […] substrates (5-bromo-4,3-indolyl phosphate and nitroblue tetrazolium) and counted using the ELRO4 AID ELISPOT Reader System (Autoimmun Diagnostika GmbH, Straf3berg, Germany).

HLA-A2.1 [2] = biological target: T1, HLA-A2.1; assay: Peptide-HLA-A2.1 dissociation rate on T2 cells with Brefeldin A (SIM2 peptides); assay type: cell-based; conditions: 50 μg/ml peptide, loss of A2.1 expression over time
Protocol: T2 cells were incubated overnight with 50 μg/ml of each candidate peptide at 37° C. in serum-free Iscove's Modified Dulbecco's Medium (IMDM). Cells were then incubated with Brefeldin A (Sigma, St. Louis, Mo.) at 10 μg/ml for 1 hour, washed, and incubated at 37° C. for 0, 2, 4 or 6 hours in the presence of Brefeldin A (50 ng/ml). Cells were then stained with BB7.2 mAb. For each time point, peptide-induced HLA-A2.1 expression was calculated as the difference of the mean fluorescence of peptide-loaded T2 cells and mean fluorescence of negative peptide-loaded T2 cells. The rate of dissociation is reflected by the loss of A2.1 expression over time.

## SIM2(25): SIM2 peptide that binds tightly to A2.1 but was not immunogenic; sequence not printed (KLLPLPSAI)
HLA-A2.1 [1]
  binding to / stabilization of HLA-A2.1 molecules: bind tightly
Transgenic HHD mice
  peptide-specific IFN-γ release by splenocytes (ELISPOT), immunogenicity: not immunogenic

## YQIVGLVAV (listed as Homo sapiens) [SIM2(205)]
Transgenic HHD mice
  peptide-specific IFN-γ release by splenocytes (ELISPOT), immunogenicity: higher numbers of splenocytes to release IFN-γ
HLA-A2.1 [2]
  peptide-HLA dissociation rate (weak or strong stabilizing epitope): strong stabilizing

## TLDGFVFVV (listed as Homo sapiens) [SIM2(87)]
Transgenic HHD mice
  peptide-specific IFN-γ release by splenocytes (ELISPOT), immunogenicity: higher numbers of splenocytes to release IFN-γ
HLA-A2.1 [2]
  peptide-HLA dissociation rate (weak or strong stabilizing epitope): strong stabilizing

## SIM2(199): SIM2 peptide able to stabilize HLA-A2.1 molecules, not immunogenic; sequence not printed (SLYDSCYQI)
HLA-A2.1 [1]
  binding to / stabilization of HLA-A2.1 molecules: bind tightly
Transgenic HHD mice
  peptide-specific IFN-γ release by splenocytes (ELISPOT), immunogenicity: not immunogenic
HLA-A2.1 [2]
  peptide-HLA dissociation rate (weak or strong stabilizing epitope): weak stabilizing

## epitope 430: SIM2 peptide able to stabilize HLA-A2.1 molecules, weak stabilizing epitope; sequence not printed (LLYTPSYSL)
HLA-A2.1 [2]
  peptide-HLA dissociation rate (weak or strong stabilizing epitope): weak stabilizing

## epitope 84: SIM2 peptide able to stabilize HLA-A2.1 molecules, weak stabilizing epitope; sequence not printed (LLQTLDGFV)
HLA-A2.1 [2]
  peptide-HLA dissociation rate (weak or strong stabilizing epitope): weak stabilizing

## SLDLKLIFL (listed as Homo sapiens) [SIM2(237)]
Transgenic HHD mice
  peptide-specific IFN-γ release by splenocytes (ELISPOT), immunogenicity: higher numbers of splenocytes to release IFN-γ
HLA-A2.1 [2]
  peptide-HLA dissociation rate (weak or strong stabilizing epitope): weak stabilizing

## KLIFLDSRV (listed as Homo sapiens) [SIM2(241)]
Transgenic HHD mice
  peptide-specific IFN-γ release by splenocytes (ELISPOT), immunogenicity: higher numbers of splenocytes to release IFN-γ
HLA-A2.1 [2]
  peptide-HLA dissociation rate (weak or strong stabilizing epitope): strong stabilizing

## FLDSRVTEV (listed as Homo sapiens) [SIM2(244)]
Transgenic HHD mice
  peptide-specific IFN-γ release by splenocytes (ELISPOT), immunogenicity: higher numbers of splenocytes to release IFN-γ
HLA-A2.1 [2]
  peptide-HLA dissociation rate (weak or strong stabilizing epitope): strong stabilizing
